Results on 4 molecules are retold here after patent US8637043B2, “Compositions useful as ligands for the formyl peptide receptor like 1 receptor and methods of use thereof” (Chemocentryx, Inc., priority 2001, dated 2014).

Assay [1] has as its system human neutrophils. Description: Calcium flux in human neutrophils. The assay is classed as cell-based. The settings on record: human neutrophils. Here is the method: (§1) Ca^2+ mobilization responses were performed using the intracellular ratiometric fluorescent dye, lndo-1. Cells were loaded with Indo-1/AM (3 μM; Molecular Probes, Eugene, Oreg.) in culture medium (45 min, 20° C., 10^7 cells/ml). After dye loading, cells were washed once with 10 ml PBS) and resuspended at 10^6 cell/ml in HBSS containing 1% FBS. Cytosolic [Ca^2+] release was determined using excitation at 350 nm using a Photon Technology International fluorimeter (excitation at 350 nm, ratioed dual emission at 400 and 490 nm).
(§2) The human recombinant chemokines, leukotactin, MlP-1α, three known CKβ8 variants CKβ8(1-99), CKβ8(25-99), CKβ8-1(1-116) and a novel NH2-terminal truncated form of CKβ8-1, CKβ8-1 (25-116) were obtained from R&D Systems (Minneapolis, Minn.). Human monocytes were generated from buffy coats (Stanford Blood Center, Palo Alto, Calif.) following a standard protocol. Briefly, PBMC were isolated by standard density gradient centrifugation (Ficoll-Paque-Plus, Pharmacia). Monocytes were purified using CD14 Microbeads (Miltenyi, Auburn, Calif.) magnetic positive selection. Human neutrophils were isolated from fresh peripheral blood from healthy individuals by gradient centrifugation on Ficoll-Hypaque (Hyclone, Calif.).
(§3) Human monocytes were either generated from buffy coats (Stanford Blood Center, Palo Also, Calif.) or from fresh blood of healthy individuals following a standard protocol. Briefly, PBMC were isolated by a Ficoll-Paque gradient centrifugation (Ficoll-Paque-Plus, Pharmacia). Monocytes were purified by CD14 Microbeads (Miltenyi) magnetic positive selection. Human neutrophils were isolated from fresh blood by dextran sedimentation and gradient centrifugation Ficoll-Paque gradient centrifugation. All cells were washed and resuspended (1×10^7/ml) in RPMI medium with 10% FBS.
(§4) Ca^2+ mobilization responses were performed using an intracellular ratiometric fluorescent dye, Indo-1. Cells were loaded with Indo-1/AM (3 μM; Molecular Probes (Eugene, Oreg.)) in culture medium (45 min, 20° C., 10^7 cells/mi). After dye loading, cells were washed once (10 ml PBS) and resuspended at 10^6 cell/ml in HBSS containing 1% FBS. Cytosolic [Ca^2+] release was determined using excitation at 350 nm using a Photon Technology International fluorimeter (excitation at 350 nm, ratioed dual emission at 400 and 490 nm).
In general terms: Calcium assays in cells follow changes in intracellular calcium, usually with a dye or a luminescent sensor.

For assay [2], the system named is mature Dendritic Cells. Description: Calcium mobilization, mature dendritic cells. The assay is classed as cell-based, human. Here is the method:
(§5) Human recombinant CKβ8-1(25-116) chemokine was obtained from R&D Systems (Minneapolis, Minn.). The peptide SHAAGtides SEQ ID NO:1 and SEQ ID NO:6 and a control protein (the reverse sequence of SEQ ID NO:1) were synthesized and HPLC-purified using routine techniques as described in Sambrook et al., 1989, and Ausubel et al., 1999.
(§6) Immature DCs were derived by culturing CD14+ monocytes in the presence of GM-CSF and IL4. Briefly, monocytes were cultured in a T-175 flask at 10^6 cells/ml in RPMI/10% FCS. Recombinant human GM-CSF and IL4 were added on day 0, 2, 4 and 6 to a final concentration of 1000 u/ml and 500 u/ml, respectively. Cells were harvested on day 7 as immature DCs and characterized for surface protein expression by FACS analysis. DC maturation was carried out by culturing day 6 immature DCs in macrophage-conditioned medium (MCM). Briefly, day 6 immature DCs were harvested by centrifugation and resuspended in MCM at 10^6 cells/ml. The medium was supplemented with 1000 u/ml of GM-CSF and 500 u/ml IL4. After three more days of culture, cells were harvested as mature DCs and characterized by surface protein expression flow cytometry.
MCM was prepared as follows: PBMCs isolated from buffy coat were incubated at 37° C. in a plastic flask pre-coated with 10 mg/ml human IgG (Sigma, St Louis, Mo.) for 30 minutes. After 30 minutes, non-adherent cells were removed and adherent cells were washed three times with DPBS, then cultured in RPMI/10% human serum. Conditioned-medium was collected after 24 hours. TNF-α concentration, which is critical for DC maturation, was determined by using a TNF-α ELISA kit (R&D Systems, Minn.). The final TNF-α level in MCM was adjusted to 50 u/mi by mixing with RPMI/10% human serum, and was stored at −80 freezer until use.
as §4

The subject of assay [3] is human monocytes. Description: Calcium flux in human monocytes. The assay is classed as cell-based. Here is the method:
as §1, §2
The activity of the CCL23 variants was tested on freshly prepared human monocytes and neutrophils using the calcium flux test described in Example 1.
as §3, §4

For assay [4], the system named is immature Dendritic Cells. Description: Calcium mobilization, immature dendritic cells. The assay is classed as cell-based, human. The protocol: as §5, §6, §4
The test system of assay [5] is neutrophils. The assay is described as follows: Cross-desensitization with leukotactin, neutrophils. The assay is classed as cell-based, human. Here is the method: (§7) In cross-desensitization tests tests, cells were stimulated sequentially with leukotactin and then the chemokines CKβ8(1-99), CKβ8(25-99), CKβ8-1(1-116), and CKβ8-1(25-116). On HEK293-CCR1 transfectants (prepared as in Example 1), leukotactin induced similar patterns of receptor desensitization to all variants.
(§8) Similar receptor cross-desensitization tests were performed using both monocytes and neutrophils (prepared as in Example 2).

In assay [6] the target is monocytes. The assay is described as follows: 125I-MIP-1α binding competition, monocytes. Set-up: species or system human. The settings on record: Monocytes. The protocol:
The binding characteristics of CCL23 variants was compared in human CCR1 expressing cells. The ability of MIP-1α and the CCL23 variants CKβ8(1-99), CKβ8(25-99), CKβ8-1(1-116) and CKβ8-1(25-116) to compete with ^125I-MIP-1α binding was investigated in HEK293-CCR1 cells (prepared as in Example 1). The cells were incubated with ^125I-labeled MIP-1α (final conc. {dot over (˜)}0.05 nM) in the presence of unlabeled chemokine (3 hours at 4° C.: 25 mM HEPES, 140 mM NaCl, 1 mM CaCl2, 5 mM MgCl2 and 0.2% BSA, adjusted to pH 7.1). Reactions mixtures were aspirated onto PEI-treated GF/B glass filters using a cell harvester (Packard). The filters were washed twice (25 mM HEPES, 500 mM NaCl, 1 mM CaCl2, 5 mM MgCl2, adjusted to pH 7.1). Scintillant (MicroScint-10; 35 μl) was added to dried filters and the filiters counted in a Packard Topcount scintillation counter. Data were analyzed and plotted using Prism software (GraphPad Software, San Diego, Calif.).
(§9) Simiar binding competition tests were conducted on monocytes and neutrophils. These cells were prepared as in Example 2.

The subject of assay [7] is human monocytes. Description: Migration assay (ChemoTx), human monocytes. The assay is classed as cell-based. The settings on record: 90 min, 1-100 nM. Here is the method: (§10) Migration assays were performed on monocytes and neutrophils. Human monocytes and neutrophils (prepared as in Exampe 2) were harvested and resuspended in chemotaxis medium (CM). The CM consisted of Hank's buffered salt solution (Gibco, Mass.) containing CaCl2 (1 mM) and MgSO4 (1 mM) with added 0.1% BSA (Sigma, St. Louis, Mo.). The assays were performed in 96-well ChemoTx® microplates (Neuroprobe, Mass.). Leukotactin, MlP-1α and chemokines (CKβ8(1-99), CKβ8(25-99), CKβ8-1(1-116) or CKβ8-1(25-116), prepared as in Example 1) were added to the lower wells (final volume 29 μL), and 20 μL of cell suspension (5×10^6 cells/mL for monocytes; 2.5×10^6 cells/mL for neutrophils) added to the polycarbonate filters (5 μm pore size for monocytes; 3 μm pore size for neutrophils). After incubation for 90 min (37° C., 100% humidity, 5% CO2), cells were removed from the upper surface of the filter by scraping. Cells that migrated into the lower chamber were quantified using the Quant cell proliferation assay kit (Molecular Probes, Oreg.).
The chemotactic activity on human monocytes and neutrophils of chemokines: CKβ8(1-99), CKβ8(25-99), CKβ8(1-116) and CKβ8(25-116); W peptides 1 and 2 and the SHAAGtide sequences SEQ ID NO:1 and SEQ ID NO:2 was determined in migration assays. The above peptides were prepared as in previous examples. The migration assays were performed in 96-well CHEMOTX® microplates (Neuroprobe) using the protocol described in Example 5.

Assay [8] relates to monocytes. Description: Cross-desensitization with leukotactin, monocytes. The assay is classed as cell-based, human. Here is the method:
as §7, §8

The test system of assay [9] is human neutrophils. The assay is described as follows: Migration assay (ChemoTx), human neutrophils. The assay is classed as cell-based. The settings on record: 90 min, 100 nM. The protocol:
as §10, with “Leukotactin, MlP-1α and chemokines (CKβ8(1-99), CKβ8(25-99), CKβ8-1(1-116) or CKβ8-1(25-116), prepared as in Example 1) were added to the lower wells (final volume 29 μL), and 20 μL of cell suspension (5×10^6 cells/mL for monocytes; 2.5×10^6 cells/mL for neutrophils) added to the polycarbonate filters (5 μm pore size for monocytes; 3 μm pore size for neutrophils).” left out
The above peptides were prepared as in previous examples.

The target of assay [10] is T1, CCR1 (Homo sapiens, UniProt P32246).
T1 construct: full length cDNA encoding CCR1 was cloned by the polymerase chain reaction (PCR) from genomic DNA isolated from human peripheral blood cells; expressed in transfected cells; pcDNA3.1 vector)
T1 sequence (P32246 1-355): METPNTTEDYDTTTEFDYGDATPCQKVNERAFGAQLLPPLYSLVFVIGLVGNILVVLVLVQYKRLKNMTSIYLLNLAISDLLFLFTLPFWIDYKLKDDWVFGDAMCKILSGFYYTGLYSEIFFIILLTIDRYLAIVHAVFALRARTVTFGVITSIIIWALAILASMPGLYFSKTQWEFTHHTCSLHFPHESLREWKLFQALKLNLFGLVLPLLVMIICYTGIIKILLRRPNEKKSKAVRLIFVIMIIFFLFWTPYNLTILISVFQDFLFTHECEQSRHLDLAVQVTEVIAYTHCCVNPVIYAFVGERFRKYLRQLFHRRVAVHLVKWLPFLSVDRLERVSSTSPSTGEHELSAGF
Description: 125I-MIP-1α binding competition, HEK293-CCR1 cells. The settings on record: HEK293-CCR1, 3 hours at 4° C. The protocol: The binding characteristics of CCL23 variants was compared in human CCR1 expressing cells. […] Reactions mixtures were aspirated onto PEI-treated GF/B glass filters using a cell harvester (Packard). The filters were washed twice (25 mM HEPES, 500 mM NaCl, 1 mM CaCl2, 5 mM MgCl2, adjusted to pH 7.1). Scintillant (MicroScint-10; 35 μl) was added to dried filters and the filiters counted in a Packard Topcount scintillation counter. Data were analyzed and plotted using Prism software (GraphPad Software, San Diego, Calif.).

The test system of assay [11] is neutrophils. Description: MIP-1α binding, neutrophils. Set-up: species or system human. Here is the method:
as §9

Where “and” joins values, the source holds several entries; their conditions need not be identical. Equal entries are not always repeated.

On to “Gly Ala Ala His Ser Leu Thr Met Gin Pro Gly lie Lys Arg Arg Trp Leu Met (GAAHSLTMQPGIKRRWLM) [Control peptide (SEQ ID NO: 33), reference compound]”, for which the calcium flux entry in [1] (Example 8) was “No significant calcium flux”; in assay [2], “No significant calcium flux”; in assay [3] (human monocytes, Example 8), “No significant calcium flux”; in assay [4], “No significant calcium flux”.

B1: CKβ8(1-99): known CKβ8 (CCL23) variant, human recombinant chemokine from R&D Systems (protein, listed as Homo sapiens)
chain: RVTKDAETEFMMSKLPLENPVLLDRFHATSADCCISYTPRSIPCSLLESYFETNSECSKPGVIFLTKKGRRFCANPSDKQVQVCMRMLKLDTRIKTRKN
With B1, the “desensitization by leukotactin prestimulation” value in assay [5] was “inactive”; in assay [8], “completely desensitized”. Moreover, the IC50 in assay [6] is 10 nM and 10.3 nM. Moreover, the calcium flux entry in [1] (100 nM) is listed as “neither MlP-1α nor CKβ8(1-99), CKβ8(25-99) or CKβ8(1-116) induced a calcium flux”. For the same molecule, the migration of monocytes result in [7] is “moderate activity”. Besides, the calcium release result in [3] (freshly prepared human monocytes, up to 250 nM) is reported as “poor activity”.

B2: leukotactin: human recombinant chemokine, CCR1 agonist (protein, listed as Homo sapiens)
chain: SFHFAADCCTSYISQSIPCSLMKSYFETSSECSKPGVIFLTKKGRQVCAKPSGPGVQDCMKKLKPYSI
For the molecule B2, in assay [1] (100 nM), the calcium flux result is on record as “induced a calcium flux”. For the same molecule, in assay [9], the migration of neutrophils result is “none of the known CCR1 ligands including leukotactin and MlP-1α was active”.

B3: MIP-1α: macrophage inflammatory protein, human recombinant chemokine, CCR1 ligand (protein, listed as Homo sapiens)
chain: SLAADTPTACCFSYTSRQIPQNFIADYFETSSQCSKPGVIFLTKRSRQVCADPSEEWVQKYVSDLE
With B3, the IC50 in assay [10] was 0.54 nM; in [6] it was 0.27 nM. In addition, the calcium flux result in [1] (100 nM) was “neither MlP-1α nor CKβ8(1-99), CKβ8(25-99) or CKβ8(1-116) induced a calcium flux”. In addition, the “MIP-1α binding to neutrophils” value in [11] is reported as “does not bind neutrophils”. In addition, in assay [9], the migration of neutrophils entry was “none of the known CCR1 ligands including leukotactin and MlP-1α was active”.

The term IC50 denotes the concentration needed to halve the response being measured. Low values mean greater potency, high ones weaker potency.
